Residues, ends and D or L forms follow the SMILES beside them. *: point of attachment. X1 = COc1ccc2c3c1OC1C(O*)=CCC4[C@@H](C2)N(C)CC[C@]314
Legend:
[1] = Oral bioavailability of hydrocodone conjugates (plasma hydrocodone plus hydromorphone); conditions: for bioavailabiltty (% HC) oral AUC / bioavailabiltty (% HC) oral Cmax: rats, relative to hydrocodone; for Oral:IN Index AUC: ratio of oral to IN AUC (% HC); for Oral:IN Index Cmax: ratio of oral to IN Cmax (% HC)
[2] = stability 90 C., 20 min (V, BP, TW, BS) of hydrocodone conjugates; conditions: for stability 90 C., 20 min BP: BP (abbreviation not defined); for stability 90 C., 20 min BS: BS (abbreviation not defined); for stability 90 C., 20 min TW: TW (abbreviation not defined); for stability 90 C., 20 min V: V (abbreviation not defined)
[3] = Intranasal bioavailability of hydrocodone conjugates; conditions: rats, relative to hydrocodone

## CC[C@H](C)[C@H](NC(=O)[C@H](CC(C)C)NC(=O)[C@@H]1CCCN1)C(=O)OC1=CCC2[C@H]3Cc4ccc(OC)c5c4[C@@]2(CCN3C)C1O5 (stereo partly drawn) [Pro-Leu-Ile-HC]
[1]
  bioavailabiltty (% HC) oral AUC: 141 % HC
  bioavailabiltty (% HC) oral Cmax: 172 % HC
[2]
  stability 90 C., 20 min BP: 100
  stability 90 C., 20 min BS: 100
  stability 90 C., 20 min TW: 100
  stability 90 C., 20 min V: 0
[3]
  bioavailabiltty (% HC) IN AUC: 87 % HC
  bioavailabiltty (% HC) IN Cmax: 101 % HC

## COc1ccc2c3c1OC1C(OC(=O)[C@H](CC(C)C)NC(=O)[C@@H]4CCCN4C(=O)[C@@H]4CCCN4)=CCC4[C@@H](C2)N(C)CC[C@]314 (stereo partly drawn) [Pro-Pro-Leu-HC]
[1]
  bioavailabiltty (% HC) oral AUC: 94 % HC
  bioavailabiltty (% HC) oral Cmax: 108 % HC
  Oral:IN Index AUC: 2.04
  Oral:IN Index Cmax: 2.25
[2]
  stability 90 C., 20 min BP: 100
  stability 90 C., 20 min BS: 100
  stability 90 C., 20 min TW: 100
  stability 90 C., 20 min V: 2
[3]
  bioavailabiltty (% HC) IN AUC: 46 % HC
  bioavailabiltty (% HC) IN Cmax: 48 % HC

## CC[C@H](C)[C@H](NC(=O)[C@@H]1CCCN1C(=O)[C@@H]1CCCN1C(=O)CNC(=O)CN)C(=O)OC1=CCC2[C@H]3Cc4ccc(OC)c5c4[C@@]2(CCN3C)C1O5 (some centres unmarked) [Gly2-Pro2-Ile-HC] (H-GGPPI-X1)
[1]
  bioavailabiltty (% HC) oral AUC: 94 % HC
  bioavailabiltty (% HC) oral Cmax: 121 % HC
  Oral:IN Index AUC: 2.14
  Oral:IN Index Cmax: 2.16
[2]
  stability 90 C., 20 min BP: 73
  stability 90 C., 20 min BS: 100
  stability 90 C., 20 min TW: 70
  stability 90 C., 20 min V: 0
[3]
  bioavailabiltty (% HC) IN AUC: 44 % HC
  bioavailabiltty (% HC) IN Cmax: 56 % HC

## CC[C@H](C)[C@H](NC(=O)[C@H](Cc1ccc(O)cc1)NC(=O)[C@@H](N)Cc1ccc(O)cc1)C(=O)OC1=CCC2[C@H]3Cc4ccc(OC)c5c4[C@@]2(CCN3C)C1O5 (stereo partly drawn) [Tyr-Tyr-Ile-HC]
[1]
  bioavailabiltty (% HC) oral AUC: 145 % HC
  bioavailabiltty (% HC) oral Cmax: 234 % HC
  Oral:IN Index AUC: 7.25
  Oral:IN Index Cmax: 6.88
[2]
  stability 90 C., 20 min BP: 66
  stability 90 C., 20 min BS: 100
  stability 90 C., 20 min TW: 23
  stability 90 C., 20 min V: 0
[3]
  bioavailabiltty (% HC) IN AUC: 20 % HC
  bioavailabiltty (% HC) IN Cmax: 34 % HC

## CC[C@H](C)[C@H](NC(=O)[C@H](CCC(=O)O)NC(=O)[C@@H](N)CCC(=O)O)C(=O)OC1=CCC2[C@H]3Cc4ccc(OC)c5c4[C@@]2(CCN3C)C1O5 (stereo partly drawn) [Glu-Glu-Ile-HC]
[1]
  bioavailabiltty (% HC) oral AUC: 83 % HC
  bioavailabiltty (% HC) oral Cmax: 112 % HC
  Oral:IN Index AUC: 1.60
  Oral:IN Index Cmax: 1.90
[2]
  stability 90 C., 20 min BP: 94
  stability 90 C., 20 min BS: 100
  stability 90 C., 20 min TW: 26
  stability 90 C., 20 min V: 0
[3]
  bioavailabiltty (% HC) IN AUC: 52 % HC
  bioavailabiltty (% HC) IN Cmax: 59 % HC

## CC[C@H](C)[C@H](NC(=O)[C@H](Cc1ccccc1)NC(=O)[C@H](Cc1ccccc1)NC(=O)[C@H](CCC(=O)O)NC(=O)[C@@H](N)CCC(=O)O)C(=O)OC1=CCC2[C@H]3Cc4ccc(OC)c5c4[C@@]2(CCN3C)C1O5 (some centres unmarked) [Glu2-Phe2-Ile-HC] (H-EEFFI-X1)
[1]
  bioavailabiltty (% HC) oral AUC: 96 % HC
  bioavailabiltty (% HC) oral Cmax: 129 % HC
  Oral:IN Index AUC: 1.41
  Oral:IN Index Cmax: 1.70
[2]
  stability 90 C., 20 min BP: 100
  stability 90 C., 20 min BS: 100
  stability 90 C., 20 min TW: 33
  stability 90 C., 20 min V: 0
[3]
  bioavailabiltty (% HC) IN AUC: 68 % HC
  bioavailabiltty (% HC) IN Cmax: 76 % HC

## CC[C@H](C)[C@H](NC(=O)[C@H](Cc1ccccc1)NC(=O)[C@H](Cc1ccccc1)NC(=O)[C@H](Cc1ccc(O)cc1)NC(=O)[C@@H](N)Cc1ccc(O)cc1)C(=O)OC1=CCC2[C@H]3Cc4ccc(OC)c5c4[C@@]2(CCN3C)C1O5 (some centres unmarked) [Tyr2-Phe2-Ile-HC] (H-YYFFI-X1)
[1]
  bioavailabiltty (% HC) oral AUC: 113 % HC
  bioavailabiltty (% HC) oral Cmax: 63 % HC
  Oral:IN Index AUC: 4.35
  Oral:IN Index Cmax: 1.85
[2]
  stability 90 C., 20 min BP: 5
  stability 90 C., 20 min BS: 50
  stability 90 C., 20 min TW: 5
  stability 90 C., 20 min V: 0
[3]
  bioavailabiltty (% HC) IN AUC: 26 % HC
  bioavailabiltty (% HC) IN Cmax: 34 % HC

## CC[C@H](C)[C@H](NC(=O)[C@@H]1CCCN1C(=O)[C@@H]1CCCN1C(=O)[C@H](CCCCN)NC(=O)[C@@H](N)CCCCN)C(=O)OC1=CCC2[C@H]3Cc4ccc(OC)c5c4[C@@]2(CCN3C)C1O5 (some centres unmarked) [Lys2-Pro2-Ile-HC] (H-KKPPI-X1)
[1]
  bioavailabiltty (% HC) oral AUC: 80 % HC
  bioavailabiltty (% HC) oral Cmax: 76 % HC
  Oral:IN Index AUC: 1.18
  Oral:IN Index Cmax: 0.81
[2]
  stability 90 C., 20 min BP: 72
  stability 90 C., 20 min BS: 100
  stability 90 C., 20 min TW: 66
  stability 90 C., 20 min V: 0
[3]
  bioavailabiltty (% HC) IN AUC: 68 % HC
  bioavailabiltty (% HC) IN Cmax: 94 % HC

## CC[C@H](C)[C@H](NC(=O)CNC(=O)CNC(=O)[C@H](CCC(=O)O)NC(=O)[C@@H](N)CCC(=O)O)C(=O)OC1=CCC2[C@H]3Cc4ccc(OC)c5c4[C@@]2(CCN3C)C1O5 (some centres unmarked) [Glu2-Gly2-Ile-HC, Glu2-Gly2-Ile-Hydrocodone] (H-EEGGI-X1)
[1]
  bioavailabiltty (% HC) oral AUC: 81 % HC
  bioavailabiltty (% HC) oral Cmax: 77 % HC
[2]
  stability 90 C., 20 min BP: 99
  stability 90 C., 20 min BS: 99
  stability 90 C., 20 min TW: 23
  stability 90 C., 20 min V: 0
[3]
  bioavailabiltty (% HC) IN AUC: 50 % HC
  bioavailabiltty (% HC) IN Cmax: 56 % HC

## CC[C@H](C)[C@H](NC(=O)[C@H](CC(=O)O)NC(=O)[C@H](CC(=O)O)NC(=O)[C@H](CCCCN)NC(=O)[C@@H](N)CCCCN)C(=O)OC1=CCC2[C@H]3Cc4ccc(OC)c5c4[C@@]2(CCN3C)C1O5 (some centres unmarked) [Lys2-Asp2-Ile-HC] (H-KKDDI-X1)
[1]
  bioavailabiltty (% HC) oral AUC: 90 % HC
  bioavailabiltty (% HC) oral Cmax: 121 % HC
  Oral:IN Index AUC: 2.31
  Oral:IN Index Cmax: 2.16
[2]
  stability 90 C., 20 min BP: 64
  stability 90 C., 20 min BS: 100
  stability 90 C., 20 min TW: 0
  stability 90 C., 20 min V: 0
[3]
  bioavailabiltty (% HC) IN AUC: 39 % HC
  bioavailabiltty (% HC) IN Cmax: 56 % HC

## COc1ccc2c3c1OC1C(OC(=O)[C@H](Cc4ccccc4)NC(=O)[C@H](Cc4ccccc4)NC(=O)[C@H](Cc4ccccc4)NC(=O)[C@H](CCC(=O)O)NC(=O)[C@@H](N)CCC(=O)O)=CCC4[C@@H](C2)N(C)CC[C@]314 (some centres unmarked) [Glu2-Phe3-HC, Glu2-Phe3-Hydrocodone] (H-EEFFF-X1)
[1]
  bioavailabiltty (% HC) oral AUC: 83 % HC
  bioavailabiltty (% HC) oral Cmax: 89 % HC
  Oral:IN Index AUC: 3.07
  Oral:IN Index Cmax: 1.89
[2]
  stability 90 C., 20 min BP: 100
  stability 90 C., 20 min BS: 84
  stability 90 C., 20 min TW: 57
  stability 90 C., 20 min V: 3
[3]
  bioavailabiltty (% HC) IN AUC: 27 % HC
  bioavailabiltty (% HC) IN Cmax: 47 % HC

## CC[C@H](C)[C@H](NC(=O)[C@H](CCCCN)NC(=O)[C@@H](N)CCCCN)C(=O)OC1=CCC2[C@H]3Cc4ccc(OC)c5c4[C@@]2(CCN3C)C1O5 (stereo partly drawn) [Lys-Lys-Ile-HC]
[1]
  bioavailabiltty (% HC) oral AUC: 80 % HC
  bioavailabiltty (% HC) oral Cmax: 76 % HC
  Oral:IN Index AUC: 1.18
  Oral:IN Index Cmax: 0.81
[2]
  stability 90 C., 20 min BP: 100
  stability 90 C., 20 min BS: 97
  stability 90 C., 20 min TW: 96
  stability 90 C., 20 min V: 0
[3]
  bioavailabiltty (% HC) IN AUC: 68 % HC
  bioavailabiltty (% HC) IN Cmax: 94 % HC

Source: US20100144645A1, “COMPOSITIONS AND METHODS FOR ENHANCING […] POTENCY OF […]-COMPOUNDS, A[…] ADVERSE SIDE EFFECTS, AND […] ABUSE” (SHIRE LLC, priority 2006, published 2010)
